Measurements reported in patent US20110236969A1.
Numbering of substitutions follows the chain as printed.

T1: human CD30 (commercial), conjugated to digoxigenin (human) (UniProt P28908)
T1 sequence (conjugated to digoxigenin (DIG), looked up): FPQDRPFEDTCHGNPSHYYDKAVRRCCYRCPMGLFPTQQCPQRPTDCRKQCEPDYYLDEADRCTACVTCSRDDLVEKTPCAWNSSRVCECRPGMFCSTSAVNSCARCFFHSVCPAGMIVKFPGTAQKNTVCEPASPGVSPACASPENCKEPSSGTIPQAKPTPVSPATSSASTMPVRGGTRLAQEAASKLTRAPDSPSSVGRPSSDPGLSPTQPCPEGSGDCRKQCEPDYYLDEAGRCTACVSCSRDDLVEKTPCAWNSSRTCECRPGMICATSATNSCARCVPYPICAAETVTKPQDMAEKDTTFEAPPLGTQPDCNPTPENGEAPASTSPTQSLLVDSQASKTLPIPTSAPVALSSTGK

B1: AC10 H1L2 (H1 AC10 VH, L2 AC10 VL) (antibody, from a related filing, IgG1, V domains shown)
VH: QIQLVQSGPEVKKPGASVKVSCKASGYTFTDYYITWVRQAPGQGLEWMGWIYPGSGNTKYNEKFQGRVTITVDTSASTAYMELSSLRSEDTAVYFCANYGNYWFAYWGQGTLVTVSS
VL: DIVLTQSPSSLSASVGDRVTITCRASQSVDFDGDSYMNWYQQKPGQPPKVLIYAASNLESGIPARFSGSGSGTDFTLTISSLQPEDFATYYCQQSNEDPWTFGGGTKVEIK
B2: AC10 H2L1 (H2 AC10 VH, L1 AC10 VL) (antibody, from a related filing, IgG1, V domains shown)
VH: QIQLVESGGGLVKPGGSLRLSCAASGYTFTDYYITWVRQAPGQGLEWMGWIYPGSGNTKYNEKFQGRVTMTVDTSTSTAYMELSSLRSEDTAVYFCANYGNYWFAYWGQGTLVTVSS
VL: B1 VL with S9A, S10T, A13L, V15P, D17E, V19A, I21L, T22S
B3: AC10 H3L3 (H3 AC10 VH, L3 AC10 VL) (antibody, from a related filing, IgG1, V domains shown)
VH: B1 VH with V68F, T69V, I70F, T71S, M81L, E82Q, L83I, R87K, S88A
VL: DIVLTQSPDSLAVSLGERATINCKASQSVDFDGDSYMNWYQQKPGQPPKVLIYAASNLESGIPARFSGSGSGTDFTLTINSLEAEDAATYYCQQSNEDPWTFGGGTKVEIK
B4: AC10 H1L3 (H1 AC10 VH, L3 AC10 VL) (antibody, from a related filing, IgG1, V domains shown)
VH: B1 VH
VL: B3 VL
B5: AC10 H1L1 (H1 AC10 VH, L1 AC10 VL) (antibody, from a related filing, IgG1, V domains shown)
VH: B1 VH
VL: B1 VL with S9A, S10T, A13L, V15P, D17E, V19A, I21L, T22S
B6: AC10 H2L2 (H2 AC10 VH, L2 AC10 VL) (antibody, from a related filing, IgG1, V domains shown)
VH: B2 VH
VL: B1 VL
B7: AC10 H3L1 (H3 AC10 VH, L1 AC10 VL) (antibody, from a related filing, IgG1, V domains shown)
VH: B1 VH with V68F, T69V, I70F, T71S, M81L, E82Q, L83I, R87K, S88A
VL: B1 VL with S9A, S10T, A13L, V15P, D17E, V19A, I21L, T22S
B8: AC10 H2L3 (H2 AC10 VH, L3 AC10 VL) (antibody, from a related filing, IgG1, V domains shown)
VH: B2 VH
VL: B3 VL

Tests used:
[1] = molecular target: GST-fused human V158 FcγRIIIa (extracellular region) (human) (UniProt P08637); experiment: SPR, GST-FcγRIIIa V158 on chip
[2] = molecular target: GST-fused human V158 FcγRIIIa (extracellular region) (human) (UniProt P08637); experiment: AlphaScreen competition with biotin-WT AC10
[3] = molecular target: CD30 fused to the Fc region of IgG1 (R&D Systems) (UniProt P28908); experiment: SPR, CD30-Fc on Protein A chip
[4] = molecular target: T1, human CD30 (commercial), conjugated to digoxigenin (human); experiment: AlphaScreen competition with biotin-WT AC10

Chain of GST-fused human V158 FcγRIIIa (extracellular region) (human) (P08637 17-208 F176V): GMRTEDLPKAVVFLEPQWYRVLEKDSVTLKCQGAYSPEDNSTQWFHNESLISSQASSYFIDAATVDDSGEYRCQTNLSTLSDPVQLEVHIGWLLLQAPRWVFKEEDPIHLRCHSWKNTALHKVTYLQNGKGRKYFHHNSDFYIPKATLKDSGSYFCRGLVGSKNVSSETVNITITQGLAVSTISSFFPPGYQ

Row | Molecule | Kd [1] | IC50 [2] | Fold KD relative to WT [3] | Kd [3] | Fold KD relative to WT [1] | Fold IC50 relative to WT [4] | IC50 [4] | Fold IC50 relative to WT [2]
1 | WT AC10 antibody H0L0 (H0 AC10 VH, L0 AC10 VL) | 18.6 nM | 87.2 nM |  |  |  |  |  | 
2 | B1 | 16.6 nM | 340 nM | 0.45 fold | 7.55 nM | 1.12 fold | 0.07 fold | 45.3 nM | 0.26 fold
3 | B2 | 14.9 nM | 751 nM | 0.36 fold | 9.49 nM | 1.25 fold | 0.06 fold | 55.1 nM | 0.12 fold
4 | B3 | 6.13 nM | 83.5 nM | 1.45 fold | 2.33 nM | 3.03 fold | 1.59 fold | 1.99 nM | 1.04 fold
5 | B4 | 11.2 nM | 178 nM | 0.67 fold | 5.09 nM | 1.66 fold | 0.18 fold | 17.4 nM | 0.49 fold
6 | B5 | 11.2 nM | 221 nM | 0.6 fold | 5.63 nM | 1.66 fold | 0.11 fold | 27.7 nM | 0.39 fold
7 | B6 | 4.01 nM |  |  | 5.95 nM |  |  | 49.2 nM | 
8 | B7 | 17.4 nM | 209 nM | 1.39 fold | 2.44 nM |  |  | 6.09 nM | 
9 | B8 | 3.52 nM | 183 nM | 0.5 fold | 6.75 nM | 5.28 fold | 0.12 fold | 27.2 nM | 0.48 fold
